Target: T1, recombinant His-tagged NRF2, full length (UniProt Q16236 1-605)
T1 sequence: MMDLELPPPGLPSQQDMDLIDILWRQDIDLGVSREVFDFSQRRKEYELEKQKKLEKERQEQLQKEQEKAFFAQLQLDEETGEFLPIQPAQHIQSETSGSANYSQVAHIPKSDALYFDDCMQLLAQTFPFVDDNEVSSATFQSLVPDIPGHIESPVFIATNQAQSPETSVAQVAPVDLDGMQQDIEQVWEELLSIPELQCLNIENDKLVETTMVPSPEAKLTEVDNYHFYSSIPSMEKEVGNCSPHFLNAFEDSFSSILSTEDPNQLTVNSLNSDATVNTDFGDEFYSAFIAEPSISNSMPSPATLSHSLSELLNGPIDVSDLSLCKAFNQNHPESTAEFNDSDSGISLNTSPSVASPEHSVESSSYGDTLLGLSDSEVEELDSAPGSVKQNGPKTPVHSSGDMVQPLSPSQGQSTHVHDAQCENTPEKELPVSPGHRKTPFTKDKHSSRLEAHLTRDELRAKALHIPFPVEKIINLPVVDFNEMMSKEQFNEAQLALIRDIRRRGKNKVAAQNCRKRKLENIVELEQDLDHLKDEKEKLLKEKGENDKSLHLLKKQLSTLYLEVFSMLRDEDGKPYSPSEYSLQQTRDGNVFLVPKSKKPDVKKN
Assay: MST

Kd: 859 ± 70.1 nM
B1: recombinant αB-crystallin (natural protein)
chain: MDIAIHHPWIRRPFFPFHSPSRLFDQFFGEHLLESDLFPTSTSLSPFYLRPPSFLRAPSWFDTGLSEMRLEKDRFSVNLDVKHFSPEELKVKVLGDVIEVHGKHEERQDEHGFISREFHRKYRIPADVDPLTITSSLSSDGVLTVNGPRKQVSGPERTIPITREEKPAVTAAPKK

From article PMC12273567 (The Journal of Biological Chemistry, 2025)
